According to patent publication US7790682B1, “Engineered human acidic fibroblast growth factors and associated methods” (The Florida State University Research Foundation, Inc., priority 2003, dated 2010):
“And” between values parts separate entries of the source, which are not always exact repeats. Identical values can stand only once.

Key:
[1] = Isothermal equilibrium denaturation in guanidine HCl monitored by CD; format: physicochemical; conditions: for Cm / m-value / ΔG0: GuHCl, 298K, CD signal at 227 nm; for ΔΔG: relative to WT*, negative value = more stable
Procedure: Protein samples were equilibrated overnight in 20 mM N-2-(acetamido)iminodiacetic acid (ADA), 100 mM NaCl pH 6.60 at 298K in 0.1M increments of guanidine HCl (GuHCl). All samples contained a final protein concentration of 25 μM. An Aviv model 202 circular dichroism spectrometer (Proterion Corp., Piscataway, N.J.) equipped with a Peltier controlled temperature unit maintaining a constant temperature of 298K was used for all spectroscopic measurements. For each sample, triplicate scans were collected and averaged. Buffer traces were collected, averaged and subtracted from the sample traces. Data smoothing was performed prior to buffer subtraction using a 5-point Fourier transform filter. The denaturation process was monitored by observing the change in CD signal at 227 nm with increasing GuHCl, according to published references. The general purpose non-linear least squares fitting program DataFit™ (Oakdale Engineering, Oakdale Pa.) was used to fit the change in molar ellipticity at 227 nm versus GuHCl concentration to a six parameter two state model: F=(F0N+SN[D]+F0D+SD[D])e^−((ΔG0+m[D]/RT)/1+e^−((ΔG0+m[D]/RT) (1) where [D] is the denaturant concentration, F0N and F0D are the 0M denaturant molar ellipticity intercepts for the native and denatured states, respectively, and SN and SD are the slopes of the native and denatured state baselines, respectively. ΔG0 and m describe the linear function of the unfolding free energy versus denaturant concentration at 298K. The effect of a given mutation upon the stability of the protein (ΔΔG) was calculated by taking the difference between the Cm values for WT* and mutant and multiplying by the average of the m values, as described by Pace and Scholtz (Measuring the conformational stability of a protein; in Protein Structure: A Practical Approach, Creighton, T. E., ed., pp. 299-321, Oxford University Press, Oxford; 1997): ΔΔG=(CmWT*−Cm mutant)(mWT*+mmutant)/2 (2) Folding Kinetics Measurements.
Previous studies by others of the stability and folding of FGF-1 have been performed by monitoring the fluorescence signal of the single buried Trp 107 in FGF-1. This Trp in the WT* structure is somewhat unusual in that it is more highly quenched in the native state than the denatured. […] We have previously compared the fluorescence and CD spectroscopic response of FGF-1 to denaturation by GuHCl and shown essentially indistinguishable results for both his-tagged and non-his-tagged forms. A tabulation of the mutant thermodynamic data from isothermal equilibrium denaturation, monitored by CD signal, is listed in Table II. The data in this table for the SYM6 mutant are from our previously published isothermal equilibrium denaturation study monitored by fluorescence.

NIH 3T3 fibroblasts = assay: Cell proliferation (mitogenic activity) assay; format: cell-based; conditions: NIH 3T3 fibroblasts; for EC50 (effective concentration for 50% maximal stimulation): 48 hours
Procedure: NIH 3T3 fibroblasts were initially plated in Dulbecco's modified Eagle's medium (DMEM) (American Type Culture Collection, Manassas Va.) supplemented with 10% (v/v) newborn calf serum (NCS) (Sigma, St. Louis Mo.), 100 units of penicillin, 100 μg streptomycin, 0.25 μg Fungizone™ and 0.01 mg/ml gentamicin (Gibco, Carlsbad Calif.) (“serum-rich” medium) in T75 tissue culture flasks (Fisher, Pittsburgh Pa.). The cultures were incubated at 37° C. and all cell growth was performed with 5% CO2 supplementation. At approximately 80% cell confluence, the cells were washed with 5 ml cold 0.14M NaCl, 5.1 mM KCl, 0.7 mM Na2HPO4 and 24.8 mM Trizma® base, pH 7.4 (TBS) and subsequently treated with 5 ml of a 0.025% trypsin solution (Invitrogen Corp., Carlsbad Calif.). Cell synchronization was initiated by serum starvation in DMEM with 0.5% NCS, 100 units of penicillin, 100 μg streptomycin, 0.25 μg Fungizone™ and 0.01 mg/ml gentamicin (“starvation” medium). The cells were seeded in T25 tissue culture flasks (Fisher, Pittsburgh, Pa.) at a cell density of 3.0×10^4 cells/cm^2 (representing ˜20% confluence). Duplicate flasks were used for each protein concentration. Cultures were incubated for 48 hours at 37° C., the medium was then decanted and replaced with fresh medium supplemented with the appropriate concentration of FGF-1 polypeptide, and incubated for an additional 48 hours. After this incubation, the medium was decanted and the cells were washed with 1 ml cold TBS pH 7.4. 1 ml of 0.025% trypsin was then added to release the cells from the flask surface, and 2 ml of serum-rich medium were added to dilute and inhibit the trypsin. The cells were counted using a hemocytometer (Hausser Scientific Partnership, Horsham Pa.). Experiments were performed in quadruplicate and the cell densities were averaged. The relationship between the cell number and log concentration of added growth factor was fit to a sigmoidal function.
Mitogenic activity towards NIH 3T3 fibroblasts was determined for WT*, SYM5, SYM5Δ104-106, SYM5Δ120-122, and SYM6ΔΔ mutants. […] The NIH 3T3 fibroblast proliferative activity of WT* FGF-1 yielded an effective concentration for 50% maximal stimulation (EC50) of 60 ng/ml (FIG. 3).

Molecule | Cm [1] [M] | m-value [1] [kJ/mol M] | ΔG0 [1] [kcal/mol] | ΔΔG [1] [kcal/mol] | EC50 (effective concentration for 50% maximal stimulation) (NIH 3T3 fibroblasts) [µg/mL] | increase in protein stability ([1]; in comparison to WT*) | mitogenic activity in comparison to WT* (in words) (NIH 3T3 fibroblasts) | effect on stability of insertion of both loop regions ([1]; relative to SYM5ΔΔ)
WT*: Wild type (his-tagged) 140 amino acid form of human FGF-1, SEQ ID NO: 4 [reference compound] | 1.06 ± 0.01 | 20.1 ± 0.5 | 5.09 ± 0.19 | 0 | 0.06 |  |  | 
SYM6/ΔΔ: SYM6 FGF-1 mutant plus both Δ104-106 and Δ120-122 deletion mutations, SEQ ID NO: 1 (protein, Human FGF-1 mutant SYM6DD) FNLPPGNYKKPKLLYCSNGGHFLRILPDGTVDGTRDRSDQHIQFQLSAESVGEVYIKSTETGQYLAIDTDGLVYGSQTPNEECLFLERLEENHYNTYISKKHGWFLGIKKNGSVKGTHYGQKAILFLPLPVSSD | 1.91 ± 0.02 | 17.7 ± 0.4 | 8.1 ± 0.14 | -3.85 | 0.00084 | 3.85 kcal/mol and ~3.82 kcal/mol | almost two orders of magnitude more potent | 
SYM5/Δ120-122: SYM5 FGF-1 mutant plus Arg119→Gly/ΔGly120/ΔPro121/ΔArg122, SEQ ID NO: 2 (protein, Human FGF-1 mutant SYM5D120-122) FNLPPGNYKKPKLLYCSNGGHFLRILPDGTVDGTRDRSDQHIQFQLSAESVGEVYIKSTETGQYLAMDTDGLVYGSQTPNEECLFLERLEENHYNTYISKKHAEKNWFLGIKKNGSVKGTHYGQKAILFLPLPVSSD | 1.00 ± 0.02 | 16.6 ± 0.5 | 3.97 ± 0.12 | 0.263 | 0.0021 |  |  | 
SYM5: FGF-1 core mutant Leu44→Phe/Leu73→Val/Val109→Leu/Leu111→Ile/Cys117→Val (protein, UniProt P05230 16-155, looked up, variant L44F L73V V109L L111I C117V) Fibroblast growth factor 1: FNLPPGNYKKPKLLYCSNGGHFLRILPDGTVDGTRDRSDQHIQFQLSAESVGEVYIKSTETGQYLAMDTDGLVYGSQTPNEECLFLERLEENHYNTYISKKHAEKNWFLGIKKNGSVKRGPRTHYGQKAILFLPLPVSSD | 1.05 ± 0.01 | 17.5 ± 0.3 | 4.4 ± 0.096 | 0.048 |  |  | essentially identical results as WT* | +15.0 kJ/mol
SYM5/Δ104-106: SYM5 FGF-1 mutant plus Ala103→Gly/ΔGlu104/ΔLys105/ΔAsn106 (protein, UniProt P05230 16-155, looked up, variant L44F L73V V109L L111I C117V A103G del104-106) Fibroblast growth factor 1: FNLPPGNYKKPKLLYCSNGGHFLRILPDGTVDGTRDRSDQHIQFQLSAESVGEVYIKSTETGQYLAMDTDGLVYGSQTPNEECLFLERLEENHYNTYISKKHGWFLGIKKNGSVKRGPRTHYGQKAILFLPLPVSSD | 1.47 ± 0.01 | 17.2 ± 0.5 | 6.05 ± 0.22 | -1.82 | 0.115 |  | approximately two-fold less mitogenic activity | 
